{
  "source": "patent US20030148973A1",
  "about": "“MAGE-A1 peptides for treating or preventing cancer” (priority 2001, published 2003)",
  "biological_target": "HLA-A0201 molecules on the surface of T2 cells",
  "assay": "T2 cell HLA-A0201 stabilization; 20 µg peptide on 10^6 acid-stripped T2 cells, BB7.2 staining, flow cytometry",
  "settings": "remark: other sources report otherwise",
  "data": [
    {"binder": "CLGLSYDGL", "note": "[MAGE-A1 174]", "values": [
      {"measurement": "Fluorescence Index (FI)", "value": 1.73, "unit": "FI"}
    ]}
  ]
}
